# Source: the NTF2 design screens of Basanta et al. (2020)
# Assay: protease stability score; higher = more stable; yeast display proteolysis, trypsin and chymotrypsin;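 note: log10 excess protease needed over predicted unfolded state with 0 meaning unfolded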
row,Sequence,protease stability score
1,DEEEDKKVKHLITNIREGNSDDFIKMMDPNARLVYGDQRVKGTSQAREFVHSLHEQARIDLEVKHITAHNGRIDVTVKMELEVNGQPYRFSVNVIVHIRNGKVQEVVFQFDPRDEQRNRK,1.24
2,DEEEDNELAKRAAKAMSTNDEDQVENLVDKDVRLEVGDKTYTGDEQVRSAIQEFRRRADHVKVNKLKVEDGQANLRFTVNWNGVELDMVIHVKATNGKIKTVTIKVRDPEQERRFKS,0.024
3,DEEEDQRVAVDALKVIWRGDSDEAQKLFDPNARFRVGDTVYHGRENVKTALRRFRERADHIRVDHIETQGEHAVAKATVHSNGRTRRLRVHATVHNGRAKEAEVRDS,0.012
4,DEEEEARKFVKTAQDKARQGNEDQLQNMADKDARVEVGDKVIHGRNEAVKTRREENKRYDRVHNDVQHITLRPGQITIRMRVHVEHNGQRRHREFVFVMHNNNGEWHVEFVEVK,-0.045
5,DEEEEHKFEDQVRTNDPDKQRKQLDKDVHVEYGDRTYHGRDAVDKWYKKMKKQVDHVHYHDIRIRNGHATLQNEANVNGRNVRMHVDIEVHNGRLKRMTINFRDEEDTKLFDRLVR,0.048
6,DEEEEKQLEDIWKENDWQKWANDADPNVRVNIGDETLHGREDLQRWAQLVRKRYDHVKIESVRFHNGRADVEVNVVVDGEQFRYKLTIQLHNGRVKHMKIQATDEQVKTLLDQMRS,1.59
7,DEEEEKRMTKILEHNDFHKLADNADPNVQINIGDKHIHGRDQAQTFFKQMQKAADHWSIRTMNVRNGHIVVDLVMNVNGQNIRFNLRIERRNGHIKSASVQFTDPDQKRQFDENRS,0.599
8,DEEEELRRAVKAIKQYMTGNEQEVSKMADPNVKIQVGEKRIHGREQLRQEVKRLHDTVDHIEVLSITHTGNSAQVDARVEVDGRVQRFVLRVVMHNGRITSIVVEVTDEDRFKNMVK,1.2
9,DEEEFKKHAEQVIRILEHGDPDQMKKNADPNAKIEVGDRTYHGHDRMREFVKRLRDRVDHMSVETWSAHNGRIHIHFRVDINGKDVRVVMQLTVDNGKIKRLRVKSG,0.914
10,DEEEHAKEFVKRLDKVNKKNDEESFEDLADENATFRYGDKTYRGREDMRKLVQDLRKRADHADVKLTRLELHNGQVRAEIDMRFRHDGRTHKDVFDAQLKVTNGTVKLTNLNQS,-0.059
11,DEEEHAKQFLDKMHRAFENNNKDEVRKLADENARFEYGDKTYHGDEEFAKWMREIRERVDRVEMDLRSIEREGEKLNIRFEVKYKHNGNSDTQRWVFVIKHHNGDYVIEKLREQ,1.22
12,DEEEHFRKWVHEFIKILETGDPDQAKKMMDPNVRETVGDKSLHGHDQMVREIEKRRESIDHVNFDIKDYRIQGNHFVLDLKVNEVHNGKEITRRLEVDASTQGDKLYVNEIRLS,-0.146
13,DEEEIATENAQRFINAVNKNNPDEFVKNMDEDVRIEYGDKVVHGRSQAKHLANEMVDKVDHLTARITDFKVHNGEVDVNVRITFRHNGRNDTHHVRLHLQVHNGRLHIQSMKWS,-0.412
14,DEEEIEDVARKLNTGNKDDMRELADKDVKAQVGDKEVHGRENLVRIMKRLKDQADHIKVDEVHVQGNRIQVRFQMNINGTTFDVSFVAKVSNGHIKYFSLRARDPRLDEKILRILK,0.493
15,DEEEIHTMLEVLKQNDEQTLQDLFDENAKISVGEFRFHGRDEAIEFAREFNKAVDHVHYKRVDVQGNRARVKMQLNVNGKNIDVVVKVEIHNGRIKSLRIDVRDEQLRRDLEEAFR,1.71
16,DEEEIRHINRKLLKALQEGNEHEVAKLADKDASFDIGDKTYNGRHQVRNMIRKIRSQVDHMTVERMSISNGRIFVFIVFEINGRTRRTNQVVEVKNGRIKEVHVKET,0.145
17,DEEEIRMILDVIRARESGDEDRLHELLDKDVEFQVGEKTYHGREEIVRQVLQERREMQYSVNVKTVRDHNGVADIKAEFHFLYNGRPMNIDVEIHAHAHNGSVVNFRVRVDPKQMDDFKT,1.26
18,DEEEKAEHVADEVRHALKRGDEDRLMNLMDENVRVEVGDKTIHGREEVRKELHRISKDFDHVDAKVKSIKVTNGNVIIIMDVKQNVNGRTRRFEVSMILDVKGDKARIQHIKND,1.11

row,Sequence,protease stability score
1,DEEEKAREQQEEFQKALEKNDKEKIKNYFDPNVRVHVGDKTLHGREDVAERLIQLAQHVDHIQVEIKKLDVRNGRIDVDVVVVFERNGQRSTQRFKITMKINNGRAYVQHMKQS,0.109
2,DEEEKAREYNKTIRQVWHDNNEEDMMRLADENARLEYGDKQLHGRENFRKRQHDIHRRVDKVDVDVKRVEVHNGKFKAQFTFTLVSNGENNKRLYILVAQLHGDKFRIKQIVEQ,0.099
3,DEEEKKKKAEHAAKAFVTGDEERMNQLASPDVTATVGDQRVHGRDDMNKLLQEFKRQADHVELKSFRNDENHVTIHVRVNHNGKMDKFVVNIRMHNGQVKIIHQTSS,-0.289
4,DEEEKKRQQEEIERLLHTGDHDRFSELMDKDVKMDVGEDRVHGRENVAKHLADEMKRIDHVNVQSVDVKGEKFDFSAQFRVNGQTVQRVIIMVQKNGKWKELSITVTDDDQLKRVES,0.092
5,DEEELDNAKEMVKALLHGNPDRAKQLADPNAHYHVGDKKVHGNDNWAKLVRKERQELRVKIDRVDIKSKGNKVSVDIDVVHDHNGQPQKRNYRLHVEIHNGKVRNVKIQHDG,0.066
6,DEEELDRLQKQLERNDWETFVRQADENVKVKYGDRSLHGHEDFNKYMKRLHDQVDHYQLNRVTNHGDHLQARVVFRFNGQNIDMTFEVRVHNGRIQEVVFHFTDPRTHKQFKENMD,1.42
7,DEEELEKINQLIKTNDFQQLRQDADPNVQVEYGDKSYHGRENLTKNMREFEKMVDHVQLKDYRVKGEKLEADMVATVNGREIRFTLSMNVHNGKIKQISLKYRNEDQKRRMEEALN,0.922
8,DEEELEKMAEKVIKMLRSGDPRQAVRMMDENAHVEYGDKTYHGREDAERAVKQWTDHFDKVRVVHVDVHNGTVNVDMEINHNGRVERYVVRVEVHNGRVKHLVVKSS,1.2
9,DEEELERQAQELVDAWQTNDESKIRHLVDENARVQVGDTTWKGREKAEEQVQEFKKQVDRLRVISVRVHGENIVVHVEIVHNGKHFSLTIVIEMHNGKVKHISVDPKAVEIATK,0.497
10,DEEELETMRRILKENDWETIAHNADKDVKMTVGDKTIHGRENVRHWVKKWQKNVDHIDVESIDVQGDRIDMVARNVVNGKTMKLVFHINVHNGHVQEIELRARNEKDEELLRKAEG,1.3
11,DEEELKDVLKKFSKNDEDFFKDLADKDARAVYGDKEVHGREEMSDLWRILKEQVDHMHINHMKLQGDRIVVDFTMTINGQEYVNVQELKFQNGKLQEVVVKVTDEEQMKRLLKIEK,0.298
12,DEEELKDWLRNAREIWETGNPDQMEELADPDASIQVGDRTYHGSDEYKKWVEDMHRHADHIEVKEVSIRGDKVHIQVVINVNGRNFTFEFELRVRNGRVKQFNFDPDRMEEIKK,0.574
13,DEEELKHINRELVEVAKTGNPDEWRKLMRKDVTMHVGDKTYHGREKVREHAKTLRDRIDHINVRSVSATGDKVVLNFEAKVNGQTRTYQFQARVHNGRIVSAHINER,0.006
14,DEEELKHLMKVQTTGDPDKYEEMADKDVKAKIGDETYHGRETVLTQLRRMLTQIDHLEVKNVDTQGDKVNLRAVANYNGQELDVIYVLVVHNGRVDNMEIDARDEKVEDQLRQAMS,-0.348
15,DEEELKHVAELILKGDEKELSKMMDEDVRVHIGNKEYHGREQAEEAVKTLVDRADHFQVHDMRTSEGQIHVQLVVNINGENVNMYFVAEVHNGRIKEISARARDPREEEKFNKLLG,1.68
16,DEEELKKHAHNLMRAMQTGDPDKVEEYFDPDAEYTVGDQTYRGREDMREWFEEVRRQVDHNQINDVRNSENHVNVDFVLNHNGTNHRVKFKAEIHNGRAKRASITTG,-0.271
17,DEEELKTAETNIRTGNFDDLSKQADENVNVQVGEKTIQGREEFNKVAHHLQKDVDHFEVKHVHNQGDQVNAEAVFVVDGKDLSFNMQMKMHNGRVKSVVFRATDETILRTYKEMLR,-0.152
18,DEEELKTIIRDMQSNDEERLANLFDEDAKVDVGDDVLHGREDVTKFFRKVNKRIDHFEIKTYDVRGEEVEVTVEAVVNGQRIKFVWVLTIKNGKAKSAKLSVTDKKQKRILEKNMD,1.12
